From patent US20130005646A1 (Novo Nordisk, published 2013)
Starred links: 1 amine or outer side, 2 acyl side, 3 side chain; linkers in the order of their positions; H or OH if unused. Positions of bridges follow the written chain, without caps; N, C: chain ends. *: point of attachment. C20 diacid = O=C(O)CCCCCCCCCCCCCCCCCCC(=O)*; γGlu = O=C(O)[C@H](CCC(=O)[*:2])N[*:1]

T1: human calcitonin (a) receptor (human, UniProt P30988 25-474)
T1 sequence (looked up): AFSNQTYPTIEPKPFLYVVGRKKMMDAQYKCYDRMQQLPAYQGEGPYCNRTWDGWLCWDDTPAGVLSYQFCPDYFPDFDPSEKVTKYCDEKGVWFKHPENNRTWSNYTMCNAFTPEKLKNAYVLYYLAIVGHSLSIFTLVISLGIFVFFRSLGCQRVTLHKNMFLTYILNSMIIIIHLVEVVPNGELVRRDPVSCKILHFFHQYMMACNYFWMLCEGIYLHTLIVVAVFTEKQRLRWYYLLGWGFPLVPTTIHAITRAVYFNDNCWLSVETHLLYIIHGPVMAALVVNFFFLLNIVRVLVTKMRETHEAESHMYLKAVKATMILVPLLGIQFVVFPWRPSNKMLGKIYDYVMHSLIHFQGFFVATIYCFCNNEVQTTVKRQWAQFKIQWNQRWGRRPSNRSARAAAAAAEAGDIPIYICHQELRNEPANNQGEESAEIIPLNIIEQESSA

T2: rat calcitonin (a) receptor (rat, UniProt P32214 25-516)
T2 sequence (looked up): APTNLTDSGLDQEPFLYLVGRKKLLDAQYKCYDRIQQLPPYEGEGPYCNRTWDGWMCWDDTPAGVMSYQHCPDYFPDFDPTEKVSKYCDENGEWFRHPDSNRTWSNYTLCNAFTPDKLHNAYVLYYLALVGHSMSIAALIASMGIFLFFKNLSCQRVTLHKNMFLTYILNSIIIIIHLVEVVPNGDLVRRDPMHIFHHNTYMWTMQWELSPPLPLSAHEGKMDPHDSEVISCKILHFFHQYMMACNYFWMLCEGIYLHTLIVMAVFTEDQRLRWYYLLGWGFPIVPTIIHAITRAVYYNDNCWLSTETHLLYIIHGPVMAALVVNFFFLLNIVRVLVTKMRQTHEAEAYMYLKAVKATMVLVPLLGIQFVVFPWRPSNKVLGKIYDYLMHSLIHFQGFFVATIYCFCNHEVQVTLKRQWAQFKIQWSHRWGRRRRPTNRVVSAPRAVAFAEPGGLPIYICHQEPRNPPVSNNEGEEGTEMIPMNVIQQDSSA

T3: rat amylin 3(a) receptor (rat calcitonin(a) receptor + rat RAMP3) (rat, UniProt P32214 25-516; Q9JJ73 23-147)
T3 sequence (looked up) 1: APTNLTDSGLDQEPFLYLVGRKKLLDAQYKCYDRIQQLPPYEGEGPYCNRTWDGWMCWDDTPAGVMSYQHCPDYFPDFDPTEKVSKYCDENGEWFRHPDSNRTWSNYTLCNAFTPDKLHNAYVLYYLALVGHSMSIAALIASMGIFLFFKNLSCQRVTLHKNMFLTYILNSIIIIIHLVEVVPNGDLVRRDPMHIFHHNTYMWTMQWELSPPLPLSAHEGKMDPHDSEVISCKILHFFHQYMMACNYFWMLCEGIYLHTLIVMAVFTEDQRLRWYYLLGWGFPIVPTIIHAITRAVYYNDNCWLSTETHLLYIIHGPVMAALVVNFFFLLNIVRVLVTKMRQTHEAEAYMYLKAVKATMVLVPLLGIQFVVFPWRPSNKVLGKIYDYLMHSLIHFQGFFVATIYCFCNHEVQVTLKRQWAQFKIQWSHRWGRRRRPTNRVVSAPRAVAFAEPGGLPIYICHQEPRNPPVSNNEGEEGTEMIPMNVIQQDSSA
T3 sequence (looked up) 2: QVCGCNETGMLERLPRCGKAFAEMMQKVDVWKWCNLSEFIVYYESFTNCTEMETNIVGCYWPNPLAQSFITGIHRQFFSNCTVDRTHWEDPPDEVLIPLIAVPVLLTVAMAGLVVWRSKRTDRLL

T4: human amylin 3(a) receptor (human calcitonin receptor + RAMP-3) (human, UniProt P30988 25-474; O60896 24-148)
T4 sequence (looked up) 1: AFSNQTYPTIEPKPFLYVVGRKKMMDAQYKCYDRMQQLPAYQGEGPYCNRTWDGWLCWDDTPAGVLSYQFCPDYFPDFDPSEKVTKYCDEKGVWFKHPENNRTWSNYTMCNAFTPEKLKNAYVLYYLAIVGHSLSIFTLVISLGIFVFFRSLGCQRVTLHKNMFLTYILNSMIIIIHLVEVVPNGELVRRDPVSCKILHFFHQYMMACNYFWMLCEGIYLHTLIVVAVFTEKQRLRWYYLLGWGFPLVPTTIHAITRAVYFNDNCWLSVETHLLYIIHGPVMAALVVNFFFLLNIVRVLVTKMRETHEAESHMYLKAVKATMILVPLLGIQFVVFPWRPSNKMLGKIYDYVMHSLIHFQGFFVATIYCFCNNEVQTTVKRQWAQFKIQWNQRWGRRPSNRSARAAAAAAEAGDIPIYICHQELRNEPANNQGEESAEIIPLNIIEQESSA
T4 sequence (looked up) 2: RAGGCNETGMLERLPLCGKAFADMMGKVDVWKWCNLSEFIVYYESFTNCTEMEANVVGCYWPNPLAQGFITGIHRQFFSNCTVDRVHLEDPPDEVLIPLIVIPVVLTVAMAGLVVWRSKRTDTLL

B1: N-alpha-[(S)-4-Carboxy-4-(19-carboxynonadecanoylamino)butyryl]-His-His-[His1,Glu14,His17,Arg35]-pramlintide (peptide)
peptide: {C20 diacid-γGlu}-HHHCNTATCATQRLAEFLHHSSNNFGPILPPTNVGSRTY-NH2
modifications: disulfide 4-9
SMILES: CC[C@H](C)[C@H](NC(=O)[C@@H]1CCCN1C(=O)CNC(=O)[C@H](Cc1ccccc1)NC(=O)[C@H](CC(N)=O)NC(=O)[C@H](CC(N)=O)NC(=O)[C@H](CO)NC(=O)[C@H](CO)NC(=O)[C@H](Cc1c[nH]cn1)NC(=O)[C@H](Cc1c[nH]cn1)NC(=O)[C@H](CC(C)C)NC(=O)[C@H](Cc1ccccc1)NC(=O)[C@H](CCC(=O)O)NC(=O)[C@H](C)NC(=O)[C@H](CC(C)C)NC(=O)[C@H](CCCNC(=N)N)NC(=O)[C@H](CCC(N)=O)NC(=O)[C@@H](NC(=O)[C@H](C)NC(=O)[C@@H]1CSSC[C@H](NC(=O)[C@H](Cc2c[nH]cn2)NC(=O)[C@H](Cc2c[nH]cn2)NC(=O)[C@H](Cc2c[nH]cn2)NC(=O)CC[C@H](NC(=O)CCCCCCCCCCCCCCCCCCC(=O)O)C(=O)O)C(=O)N[C@@H](CC(N)=O)C(=O)N[C@@H]([C@@H](C)O)C(=O)N[C@@H](C)C(=O)N[C@@H]([C@@H](C)O)C(=O)N1)[C@@H](C)O)C(=O)N[C@@H](CC(C)C)C(=O)N1CCC[C@H]1C(=O)N1CCC[C@H]1C(=O)N[C@H](C(=O)N[C@@H](CC(N)=O)C(=O)N[C@H](C(=O)NCC(=O)N[C@@H](CO)C(=O)N[C@@H](CCCNC(=N)N)C(=O)N[C@H](C(=O)N[C@@H](Cc1ccc(O)cc1)C(N)=O)[C@@H](C)O)C(C)C)[C@@H](C)O
B2: N-alpha-[(S)-4-Carboxy-4-(19-carboxynonadecanoylamino)butyryl]-His-His-[His1,Glu14,His17,Ala25,Pro26,Ser28,Ser29]-pramlintide (peptide)
peptide: {C20 diacid-γGlu}-HHHCNTATCATQRLAEFLHHSSNNFGAPLSSTNVGSNTY-NH2
modifications: disulfide 4-9
SMILES: CC(C)C[C@H](NC(=O)[C@H](CCCNC(=N)N)NC(=O)[C@H](CCC(N)=O)NC(=O)[C@@H](NC(=O)[C@H](C)NC(=O)[C@@H]1CSSC[C@H](NC(=O)[C@H](Cc2c[nH]cn2)NC(=O)[C@H](Cc2c[nH]cn2)NC(=O)[C@H](Cc2c[nH]cn2)NC(=O)CC[C@H](NC(=O)CCCCCCCCCCCCCCCCCCC(=O)O)C(=O)O)C(=O)N[C@@H](CC(N)=O)C(=O)N[C@@H]([C@@H](C)O)C(=O)N[C@@H](C)C(=O)N[C@@H]([C@@H](C)O)C(=O)N1)[C@@H](C)O)C(=O)N[C@@H](C)C(=O)N[C@@H](CCC(=O)O)C(=O)N[C@@H](Cc1ccccc1)C(=O)N[C@@H](CC(C)C)C(=O)N[C@@H](Cc1c[nH]cn1)C(=O)N[C@@H](Cc1c[nH]cn1)C(=O)N[C@@H](CO)C(=O)N[C@@H](CO)C(=O)N[C@@H](CC(N)=O)C(=O)N[C@@H](CC(N)=O)C(=O)N[C@@H](Cc1ccccc1)C(=O)NCC(=O)N[C@@H](C)C(=O)N1CCC[C@H]1C(=O)N[C@@H](CC(C)C)C(=O)N[C@@H](CO)C(=O)N[C@@H](CO)C(=O)N[C@H](C(=O)N[C@@H](CC(N)=O)C(=O)N[C@H](C(=O)NCC(=O)N[C@@H](CO)C(=O)N[C@@H](CC(N)=O)C(=O)N[C@H](C(=O)N[C@@H](Cc1ccc(O)cc1)C(N)=O)[C@@H](C)O)C(C)C)[C@@H](C)O
B3: N-alpha-[(S)-4-Carboxy-4-(19-carboxynonadecanoylamino)butyryl]-His-[His1,Glu14,His17]-pramlintide (peptide)
peptide: {C20 diacid-γGlu}-HHCNTATCATQRLAEFLHHSSNNFGPILPPTNVGSNTY-NH2
modifications: disulfide 3-8
SMILES: CC[C@H](C)[C@H](NC(=O)[C@@H]1CCCN1C(=O)CNC(=O)[C@H](Cc1ccccc1)NC(=O)[C@H](CC(N)=O)NC(=O)[C@H](CC(N)=O)NC(=O)[C@H](CO)NC(=O)[C@H](CO)NC(=O)[C@H](Cc1c[nH]cn1)NC(=O)[C@H](Cc1c[nH]cn1)NC(=O)[C@H](CC(C)C)NC(=O)[C@H](Cc1ccccc1)NC(=O)[C@H](CCC(=O)O)NC(=O)[C@H](C)NC(=O)[C@H](CC(C)C)NC(=O)[C@H](CCCNC(=N)N)NC(=O)[C@H](CCC(N)=O)NC(=O)[C@@H](NC(=O)[C@H](C)NC(=O)[C@@H]1CSSC[C@H](NC(=O)[C@H](Cc2c[nH]cn2)NC(=O)[C@H](Cc2c[nH]cn2)NC(=O)CC[C@H](NC(=O)CCCCCCCCCCCCCCCCCCC(=O)O)C(=O)O)C(=O)N[C@@H](CC(N)=O)C(=O)N[C@@H]([C@@H](C)O)C(=O)N[C@@H](C)C(=O)N[C@@H]([C@@H](C)O)C(=O)N1)[C@@H](C)O)C(=O)N[C@@H](CC(C)C)C(=O)N1CCC[C@H]1C(=O)N1CCC[C@H]1C(=O)N[C@H](C(=O)N[C@@H](CC(N)=O)C(=O)N[C@H](C(=O)NCC(=O)N[C@@H](CO)C(=O)N[C@@H](CC(N)=O)C(=O)N[C@H](C(=O)N[C@@H](Cc1ccc(O)cc1)C(N)=O)[C@@H](C)O)C(C)C)[C@@H](C)O
B4: N-alpha-[(S)-4-Carboxy-4-(19-carboxynonadecanoylamino)butyryl]-[His1,Glu14,His17]-pramlintide (peptide)
peptide: {C20 diacid-γGlu}-HCNTATCATQRLAEFLHHSSNNFGPILPPTNVGSNTY-NH2
modifications: disulfide 2-7; not fully specified; printed as N-alpha-[(S)-4-Carboxy-4-(19-carboxynonadecanoylamino)butyryl]-[His1,Glu14,His17]-pramlintide
B5: N-alpha-[(S)-4-Carboxy-4-(19-carboxynonadecanoylamino)butyryl]-His-His-[His1,Glu14,Arg17]-pramlintide (peptide)
peptide: {C20 diacid-γGlu}-HHHCNTATCATQRLAEFLRHSSNNFGPILPPTNVGSNTY-NH2
modifications: disulfide 4-9
SMILES: CC[C@H](C)[C@H](NC(=O)[C@@H]1CCCN1C(=O)CNC(=O)[C@H](Cc1ccccc1)NC(=O)[C@H](CC(N)=O)NC(=O)[C@H](CC(N)=O)NC(=O)[C@H](CO)NC(=O)[C@H](CO)NC(=O)[C@H](Cc1c[nH]cn1)NC(=O)[C@H](CCCNC(=N)N)NC(=O)[C@H](CC(C)C)NC(=O)[C@H](Cc1ccccc1)NC(=O)[C@H](CCC(=O)O)NC(=O)[C@H](C)NC(=O)[C@H](CC(C)C)NC(=O)[C@H](CCCNC(=N)N)NC(=O)[C@H](CCC(N)=O)NC(=O)[C@@H](NC(=O)[C@H](C)NC(=O)[C@@H]1CSSC[C@H](NC(=O)[C@H](Cc2c[nH]cn2)NC(=O)[C@H](Cc2c[nH]cn2)NC(=O)[C@H](Cc2c[nH]cn2)NC(=O)CC[C@H](NC(=O)CCCCCCCCCCCCCCCCCCC(=O)O)C(=O)O)C(=O)N[C@@H](CC(N)=O)C(=O)N[C@@H]([C@@H](C)O)C(=O)N[C@@H](C)C(=O)N[C@@H]([C@@H](C)O)C(=O)N1)[C@@H](C)O)C(=O)N[C@@H](CC(C)C)C(=O)N1CCC[C@H]1C(=O)N1CCC[C@H]1C(=O)N[C@H](C(=O)N[C@@H](CC(N)=O)C(=O)N[C@H](C(=O)NCC(=O)N[C@@H](CO)C(=O)N[C@@H](CC(N)=O)C(=O)N[C@H](C(=O)N[C@@H](Cc1ccc(O)cc1)C(N)=O)[C@@H](C)O)C(C)C)[C@@H](C)O

What was measured:
Assay in all cases: cell-based or functional assay
[1] = biological target: T1, human calcitonin (a) receptor
[2] = biological target: T2, rat calcitonin (a) receptor
[3] = biological target: T3, rat amylin 3(a) receptor (rat …)
[4] = biological target: T4, human amylin 3(a) receptor (human …)

| Binder | CTa receptor human EC50 [1] [nM] | CTa receptor rat EC50 [2] [nM] | Amylin receptor rat EC50 [3] [nM] | Amylin receptor human EC50 [4] [nM] |
| --- | --- | --- | --- | --- |
| B1 | 0.429 | 1.34 | 0.133 | 0.192 |
| B2 | 0.31 | 0.824 | 0.132 | 0.105 |
| B3 | 0.166 | 0.221 | 0.147 | 0.111 |
| B4 | 0.126 | 1.17 | 0.187 | 0.131 |
| B5 | 0.409 | 6.76 | 0.082 | 0.0775 |
